Results on 1 molecule are retold here after publication PMC7164391 (Science (New York, N.Y.), 2020).

The assay has as its target receptor-binding domain (RBD) of the SARS-CoV spike (S) protein (SARS-CoV, isolate of GenBank ABF65836.1 …, UniProt Q19QX0). To be noted: both partners purified.

B1: CR3022 Fab (Fab, V domains shown)
VH: QMQLVQSGTEVKKPGESLKISCKGSGYGFITYWIGWVRQMPGKGLEWMGIIYPGDSETRYSPSFQGQVTISADKSINTAYLQWSSLKASDTAIYYCAGGSGISTPMDVWGQGTTVTVSS
VL: not shown
The molecule B1 showed a dissociation constant (Kd) of 1 ± 0.1 nM.

As usually defined, the Kd is the constant that tells how readily two partners part at equilibrium. Higher therefore signals weaker binding.
